Results reported in patent US20230357447A1 (JANUX THERAPEUTICS, published 2023).

What was measured:
[1] = target: T1, Anti-CD28 scFv (VH-linker 1-VL) (biotinylated for capture on neutravidin plates); test: phage ELISA, scFv captured on plate;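 also: crude clonal phage supernatants added to wells preincubated with soluble CD28 or with blocking buffer only, bound phage read out by HRP-linked anti-M13 antibody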
[2] = target: T1, Anti-CD28 scFv (VH-linker 1-VL); test: phage ELISA, scFv captured on plate, competitor soluble CD28;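 also: crude clonal phage supernatants added to wells pre-incubated with soluble CD28 or with blocking buffer only as control, bound phage read out with HRP-linked anti-M13 antibody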
Procedure: Clonal phage were harvested as crude supernatants and screened via standard enzyme linked immunosorbent assays (ELISAs). […] Prior to the addition of clonal phage, wells were incubated with blocking buffer and CD28 soluble protein or blocking buffer alone. Without washing or aspirating, clonal phage supernatants were then added to the wells and incubated for a short time. Wells were then washed followed by detection of bound phage using a horse radish peroxidase conjugated anti-M13 antibody.

T1 sequence (scFv, as listed by the source): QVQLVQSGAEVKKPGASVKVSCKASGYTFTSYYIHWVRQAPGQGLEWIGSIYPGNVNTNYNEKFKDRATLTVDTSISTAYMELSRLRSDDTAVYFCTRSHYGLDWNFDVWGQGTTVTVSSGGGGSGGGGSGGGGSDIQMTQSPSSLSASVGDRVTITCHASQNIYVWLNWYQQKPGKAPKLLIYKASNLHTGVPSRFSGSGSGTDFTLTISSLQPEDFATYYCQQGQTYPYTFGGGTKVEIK

B1: Phage-183 (peptide)
peptide: IDWCPRDLWALCFN
B1 was tested, and the “Phage binding ELISA CD28 scFv signal” value [1] was 0.37 and the “Phage binding ELISA CD28 scFv signal in presence of CD28” value [2] was 0.129.

B2: Phage-182 (peptide)
peptide: MHWCPRSLWNECYF
With B2 the “Phage binding ELISA CD28 scFv signal” value [1] was 0.456 and the “Phage binding ELISA CD28 scFv signal in presence of CD28” value [2] was 0.115.

B3: Phage-190 (peptide)
peptide: MDWCPRDMWAECFF
In the case of B3, the “Phage binding ELISA CD28 scFv signal” value [1] is reported as 2.69 and the “Phage binding ELISA CD28 scFv signal in presence of CD28” value [2] is reported as 2.26.

B4: Phage-195 (peptide)
peptide: MDWCPKHMWFMCFN
In the case of B4, the “Phage binding ELISA CD28 scFv signal” value [1] is reported as 2.4 and the “Phage binding ELISA CD28 scFv signal in presence of CD28” value [2] is reported as 0.372.

B5: Phage-177 (peptide)
peptide: MDWCPVSLWDHCFN
With B5 the “Phage binding ELISA CD28 scFv signal” value [1] was 0.616 and the “Phage binding ELISA CD28 scFv signal in presence of CD28” value [2] was 0.1.

B6: Phage-179 (peptide)
peptide: MDWCPWILWNECFN
With B6 the “Phage binding ELISA CD28 scFv signal” value [1] was 0.581 and the “Phage binding ELISA CD28 scFv signal in presence of CD28” value [2] was 0.137.

B7: Phage-184 (peptide)
peptide: MHWCPINLWNECFS
For B7, the “Phage binding ELISA CD28 scFv signal” value [1] was 0.316 and the “Phage binding ELISA CD28 scFv signal in presence of CD28” value [2] was 0.098.

B8: Phage-187 (peptide)
peptide: IGKLTLCLNADLVI
B8 was tested, and the “Phage binding ELISA CD28 scFv signal” value [1] was 0.116 and the “Phage binding ELISA CD28 scFv signal in presence of CD28” value [2] was 0.1.

B9: Phage-192 (peptide)
peptide: DVWCPKYMWSLCFN
With B9 the “Phage binding ELISA CD28 scFv signal” value [1] was 2.53 and the “Phage binding ELISA CD28 scFv signal in presence of CD28” value [2] was 0.418.

B10: Phage-188 (peptide)
peptide: MDWCPSYLWDQCFF
B10 was tested, and the “Phage binding ELISA CD28 scFv signal” value [1] was 0.083 and the “Phage binding ELISA CD28 scFv signal in presence of CD28” value [2] was 0.079.

B11: Phage-186 (peptide)
peptide: QDWCPTYLWHHCFN
With B11 the “Phage binding ELISA CD28 scFv signal” value [1] was 0.123 and the “Phage binding ELISA CD28 scFv signal in presence of CD28” value [2] was 0.122.

B12: Phage-191 (peptide)
peptide: MDWCPRDMWYECFN
In the case of B12, the “Phage binding ELISA CD28 scFv signal” value [1] is reported as 2.56 and the “Phage binding ELISA CD28 scFv signal in presence of CD28” value [2] is reported as 0.235.

B13: Phage-193 (peptide)
peptide: MDWCPMDMWVNCFN
B13 was tested, and the “Phage binding ELISA CD28 scFv signal” value [1] was 2.52 and the “Phage binding ELISA CD28 scFv signal in presence of CD28” value [2] was 0.277.

B14: Phage-194 (peptide)
peptide: MDWCPSDMWHECYA
For B14, the “Phage binding ELISA CD28 scFv signal” value [1] was 2.47 and the “Phage binding ELISA CD28 scFv signal in presence of CD28” value [2] was 0.2.

B15: Phage-181 (peptide)
peptide: MYWCPRDLWDVCFN
With B15 the “Phage binding ELISA CD28 scFv signal” value [1] was 0.512 and the “Phage binding ELISA CD28 scFv signal in presence of CD28” value [2] was 0.102.

B16: Phage-176 (peptide)
peptide: MDWCPSDLWHECFH
For B16, the “Phage binding ELISA CD28 scFv signal” value [1] was 0.629 and the “Phage binding ELISA CD28 scFv signal in presence of CD28” value [2] was 0.164.

B17: Phage-189 (peptide)
peptide: VDWCPRYLWHVCYN
In the case of B17, the “Phage binding ELISA CD28 scFv signal” value [1] is reported as 0.065 and the “Phage binding ELISA CD28 scFv signal in presence of CD28” value [2] is reported as 0.061.

B18: Phage-196 (peptide)
peptide: MDWCPRYMWYQCFS
With B18 the “Phage binding ELISA CD28 scFv signal” value [1] was 2.36 and the “Phage binding ELISA CD28 scFv signal in presence of CD28” value [2] was 0.357.
